One molecule from patent EP4431529A1 (Sunshine Guojian Pharmaceutical (Shanghai) Co., Ltd., dated 2024) can be followed below.

The Kd is the free concentration of one partner at which half of the binding sites on the other are occupied at equilibrium, for simple one-to-one binding. As a reminder, the koff is the rate constant with which the complex falls apart. The low end stands for slow dissociation, the high end for fast dissociation. In general, kon refers to the second-order rate constant of association. A lower kon goes with slower complex formation. The EC50 is the midpoint of the concentration-response curve. Lower therefore signals greater potency.

Assay [1] deals with T1, VEGF165 (UniProt P15692-4 27-191).
T1 construct: treated as one molecule; also called VEGF protein; VGEF
T1 sequence (P15692 other isoform, or with tags, fused parts or gaps limits assumed): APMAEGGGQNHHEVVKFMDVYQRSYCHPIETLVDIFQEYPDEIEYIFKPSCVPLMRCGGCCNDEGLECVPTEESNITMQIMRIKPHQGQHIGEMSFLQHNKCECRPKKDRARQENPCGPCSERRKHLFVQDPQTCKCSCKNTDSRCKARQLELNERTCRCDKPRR
The assay is described as follows: ELISA, VEGF coated on the plate.

Assay [2] has as its target T2, IL-17A protein (human, UniProt Q16552 24-155).
T2 construct: Embodiments 3 and 4 say only 'IL-17A'; Treated as one molecule; also called human IL-17A
T2 sequence (looked up): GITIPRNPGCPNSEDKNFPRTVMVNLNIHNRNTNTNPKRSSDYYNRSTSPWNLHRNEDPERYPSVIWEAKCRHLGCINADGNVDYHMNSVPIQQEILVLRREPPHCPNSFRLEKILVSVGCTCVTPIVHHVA
Briefly: SPR, Biacore 8K, antibody captured on Protein A, IL-17A as analyte. For orientation: Surface plasmon resonance follows binding to a sensor surface in real time, without labels.

The target in assay [3] is T2, IL-17A protein. Briefly: ELISA, IL-17A coated on the plate.
Assay [4] concerns the target T2, IL-17A protein. Briefly: cell-based or functional assay.

B1: anti-IL-17 monoclonal antibody 608 (antibody, human IgG1, kappa, V domains shown)
VH: EVQLVESGGGLVQPGGSLRLSCAASGFTFSSFDMSWGRQAPGKRLEWVAFMSSGGSTYYPDSVKGRFTISRDNSKNTLYLQMNSLRAEDTAVYYCARGERYGSYWGQGTLVTVSS
VL: DIQMTQSPSSLSASVGDRVTITCKASDHINNWLAWYQQKPGKAPKLLISGATSLETGVPSRFSGSGSGTDYTLTISSLQPEDFATYYCQQYWSTPFTFGSGTKLEIKR
notes: Humanized anti-human IL-17A monoclonal antibody from CN 201780033670.5; positive control
Turning to B1, the binding result in assay [1] is on record as “no binding (tested: 25 nM (highest concentration tested))”. In assay [2], this molecule showed a Kd of 0.0164 nM, a koff of 4e-05 s⁻¹ and a kon of 2.44e+06 M⁻¹ s⁻¹. In assay [3], this molecule yielded an EC50 of 0.052 nM. Further, the “IC50 of blocking IL-17A-induced IL-6 secretion from HeLa cells” value in assay [4] was determined as 0.877 nM.
